For four molecules, Kd, koff and kon results are on record in patent publication US20160257751A1 (SORRENTO THERAPEUTICS, published 2016).

Substitutions are numbered along the chain they refer to.

The test concerns the target T1, human CD47 (human, UniProt Q08722 19-139, limits assumed, biotinylated in the ELISAs (site not stated)).
T1 construct: also called biotinylated CD47; CD47 receptor
Nature of the test: SPR (BIACORE). For orientation: SPR reads the build-up and loss of mass on a sensor chip optically.

T1 sequence (Q08722 19-139 limits assumed): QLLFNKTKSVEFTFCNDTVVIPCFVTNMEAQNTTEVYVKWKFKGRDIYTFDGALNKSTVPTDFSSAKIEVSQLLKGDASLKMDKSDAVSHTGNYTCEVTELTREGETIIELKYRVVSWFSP

B1: C47A8 (antibody, V domains shown)
VH: QVQLVQSGAEVKKPGASVKVSCKASGYTFTSYYMHWVRQAPGQGLEWMGIINPSGGSTSYAQKFQGRVTMTRDTSTSTVYMELSSLRSEDTAVYYCARSTLWFSEFDYWGQGTLVTVSS
VL: QSVLTQPSSVSASPGQSITISCSGTSSDVGGHNYVSWYQQHPGKAPKLMIYDVTKRPSGVPDRFSGSKSGNTASLTVSGLQAEDEADYYCCSYAGSRVYVFGTGTKLTVL
notes: also called CD47A8
B1: the Kd – broadly, the concentration at which binding is half-saturated – stood at 82.3 nM; the koff (commonly a measure of how fast the partners let go of each other) was 0.047 s⁻¹; the kon (commonly a measure of how fast the partners come together) amounted to 576000 M⁻¹ s⁻¹.

B2: C47A8-CS (antibody, V domains shown)
VH: B1 VH
VL: B1 VL with C91S
Molecule B2 came in with a Kd of 156 nM, a koff of 0.034 s⁻¹ and a kon of 215000 M⁻¹ s⁻¹.

B3: C47A8-CQ (antibody, V domains shown)
VH: B1 VH
VL: B1 VL with C91Q
As for B3, the Kd turned out to be 156 nM, the koff is 0.02 s⁻¹ and the kon worked out at 129000 M⁻¹ s⁻¹.

B4: C47B10 (antibody, V domains shown)
VH: B1 VH
VL: QSVLTQPASVSGSPGQSISISCTGTSSDVGGHNYVSWYQQHPGKAPKLMIYDVRNRPSGVSNRFSGSKSGSTASLTISGLQTEDEADYYCNSYTGSRTYVFGSGTKLTVL
notes: lambda light chain (captured with anti-human lambda); also called CD47B10
Molecule B4 displayed a Kd of 12.1 nM, a koff of 0.00129 s⁻¹ and a kon of 106000 M⁻¹ s⁻¹.
